Target: the molecule itself
Experiment: cross-linking

B1: centromere protein B (CENP-B), full-size, from HeLa nuclei (natural protein)
chain: MGPKRRQLTFREKSRIIQEVEENPDLRKGEIARRFNIPPSTLSTILKNKRAILASERKYGVASTCRKTNKLSPYDKLEGLLIAWFQQIRAAGLPVKGIILKEKALRIAEELGMDDFTASNGWLDRFRRRHGVVSCSGVARARARNAAPRTPAAPASPAAVPSEGSGGSTTGWRAREEQPPSVAEGYASQDVFSATETSLWYDFLPDQAAGLCGGDGRPRQATQRLSVLLCANADGSEKLPPLVAGKSAKPRAGQAGLPCDYTANSKGGVTTQALAKYLKALDTRMAAESRRVLLLAGRLAAQSLDTSGLRHVQLAFFPPGTVHPLERGVVQQVKGHYRQAMLLKAMAALEGQDPSGLQLGLTEALHFVAAAWQAVEPSDIAACFREAGFGGGPNATITTSLKSEGEEEEEEEEEEEEEEGEGEEEEEEGEEEEEEGGEGEELGEEEEVEEEGDVDSDEEEEEDEESSSEGLEAEDWAQGVVEAGGSFGAYGAQEEAQCPTLHFLEGGEDSDSDSEEEDDEEEDDEDEDDDDDEEDGDEVPVPSFGEAMAYFAMVKRYLTSFPIDDRVQSHILHLEHDLVHVTRKNHARQAGVRGLGHQS
stoichiometry N: 2

From article PMC2289762 (The Journal of Cell Biology, 1992)
